# B1: 1B2: Mouse monoclonal anti-CMV PC neutralizing antibody that targets the UL128/130/131A subunits of the PC (antibody, V domains shown)
# VH: EVQLVESGGVLVKPGGSLKLSCAASGFTFSDYYMYWVRQTPEKRLEWVATISDDGNYTNYPDSVKGRFTISRDNAKNNLYLQMSSLKSEDTAMYYCARGWLLPVFAYWGQGTLVTVSA
# VL: DIVLTQSPATLSVTPGDSVSLSCRASQSIGNNLHWYQQKSHESPRLLIKYTSQSISGIPSRFSGSGSGTDFTLNINSVETEDFGVYFCQQSNRWPWTFGGGTKLEIK
# B2: 62-11: Mouse monoclonal gH-specific HCMV neutralizing antibody raised against the envelope PC by vaccination (antibody, V domains shown)
# VH: QVQLQQPGAELVRPGASVKLSCKASGYTFTSYWMNWVKQRPGQGLEWIGMIDPSDSETHYNQMFKDKATLTVDKSSSTAYMQLSSLTSEDSAVYYCSNGYSSFAYWGQGTLVTVSV
# VL: DVQMTQTTSSLSASLGDRVTISCSASQGISNYLNWYQQKPDGTVKLLIYDTSSLHSGVPSRFSGSGSGTDYSLTISNLEPEDIATYYCQQYSKLPYTFGGGTKLEIK
# Tests used:
# [1] = tested on: hiPSC-derived brain organoids; test: MEA recording of hiPSC-derived brain organoids with neuronal blockers; assay type: cell-based, human; conditions: uninfected brain organoids, blocker 10 μM applied immediately before recording
# Description: (§1) Microelectrode Arrays (MEA). Brain organoids at day 45 of differentiation were partially dissociated and seeded onto 12-well transparent MEA plates at three brain organoids per well. Brain organoids were cultured in BrainPhys medium, including 1×B27, 1×N2, 20 ng/ml GDNF, 20 ng/ml BDNF, 500 μg/ml Dibutyryl-cAMP, 1× Glutamax, and 1× NEAA. MEA recordings were performed at 37° C. in a Maestro MEA system with AxIS software using a bandwidth with a filter for 10 Hz to 2.5 kHz cutoff frequencies. Spike detection was performed using an adaptive threshold set to 5.5 times of the standard deviation of the estimated noise on each electrode. For recordings, following a 5-minute resting time in the Maestro instrument, each plate was recorded for 10 minutes to calculate the spike rate per well. When a recording of 5 spikes over the length of 1 minute (5 spikes per minute) was obtained, the electrode was considered active. Individual electrode bursts were identified using an adaptive Poisson surprise algorithm, while network bursts were identified for each well using a non-adaptive algorithm requiring a minimum of 10 spikes with a maximum inter-spike interval of 100 ms. Multielectrode data analysis was performed using the Axion Biosystems NeuralMetrics Tool. Synchrony index was calculated by NeuralMetric Tool with synchrony window set as 20 ms. […]
# [2] = tested on: HCMV TB40/E; test: Receptor-specific siRNA treatment of brain organoids followed by TB40/E infection; assay type: cell-based, Human cytomegalovirus; conditions: for GFP fluorescence of siRNA-treated infected brain organoids / growth kinetics of siRNA-treated infected brain organoids: siRNA for 4 days, then GFP-labeled TB40/E, up to 20 days post infection, compared to control siRNA; for susceptibility of brain organoids to TB40/E: siRNA-mediated knockdown, summary statement
# Description: (§2) HCMV infection of brain organoids. Brain organoids at day 45 of differentiation were seeded in 24-well plates and exposed to 5×10^5 pfu/ml of HCMV virus for 24 hours. Following infection, 1 ml medium was replaced, and each organoid was placed in a single well for the duration of the experiment. At different time points post infection, each organoid was evaluated for GFP fluorescence intensity and organoid size in diameter using the same microscopy setting during each experiment.
# RNA interference. Oligonucleotides for siRNA-mediated RNA interference were synthesized by […]. For RNA interference in brain organoids, four brain organoids with similar size were seeded in ultralow 24-well plates (one organoid per well) and transfected with siRNA using siLentFect. After 96 hours incubation, each organoid was infected with TB40/E at 5×10^5 pfu/ml. Medium was changed the following day. Brain organoids were cultured for 20 days on shaker with continuous medium change every 3-4 days.
# [3] = tested on: HCMV infection of fibroblasts; conditions: cited from earlier work
# [4] = tested on: HCMV infection of epithelial cells; conditions: cited from earlier work
# [5] = tested on: HCMV TB40/E; test: HCMV TB40/E infection of hiPSC-derived brain organoids in the presence of NAbs (GFP fluorescence intensity, organoid size); assay type: cell-based, Human cytomegalovirus; conditions: for GFP fluorescence intensity of infected brain organoids / brain organoid growth kinetics (relative organoid size): GFP-labeled TB40/E, organoids at day 45 of differentiation, NAb 3.2-2000 ng/ml, up to 30 days post infection; for GFP fluorescence intensity of infected brain organoids / brain organoid growth kinetics (relative organoid size) / brain organoid size: compared to IgG control; for brain organoid size: TB40/E, 80-2000 ng/ml antibody; for prevention of HCMV infection of human brain organoids: summary statement
# Description: as §2
# (§3) Brain organoid treatment with NAbs. 1B2 and 62-11 NAbs at final concentrations ranging from 3.2 ng/ml to 4000 ng/ml were incubated with 5×10^5 pfu/ml of HCMV for 1 hour at 37° C. and then transferred to brain organoid-containing wells. Normal mouse IgG was used as a control at the concentration of 2000 ng/ml. For proliferation assay, brain organoids were incubated with 10 μM BrdU for 2 hours and fixed in 4% paraformaldehyde (PFA) for 1 hour, followed by immunostaining.
# (§4) Images were obtained with a Carl Zeiss LSM700 confocal microscope or Nikon Eclipse TE-2000-S microscope. Cortical layer thicknesses, brain organoid size and GFP fluorescence intensity of brain organoids were measured by Image J. For measuring the layer thickness, small rectangles were drawn to ensure two opposite sides to align with both layer marker dashed lines.
# [6] = tested on: HCMV strain TR; test: HCMV TR infection of hiPSC-derived brain organoids in the presence of NAb; assay type: cell-based, Human cytomegalovirus; conditions: GFP-labeled TR, IMR90 iPSC-derived organoids at day 45 of differentiation
# Description: as §2, §3, §4
# [7] = tested on: HCMV TB40/E; test: MEA recording of neural network activity in TB40/E-infected brain organoids; assay type: cell-based, Human cytomegalovirus; conditions: 4000 ng/ml NAb, MEA recording 2 weeks post infection
# Description: as §1
# [8] = tested on: HCMV TB40/E; test: Cortical layer structure of TB40/E-infected brain organoids by layer marker immunostaining; assay type: cell-based, Human cytomegalovirus; conditions: NAb 2000 ng/ml, compared to IgG control
# Description: as §3
# Immunostaining. Cells on coverslip were fixed with 4% PFA in PBS for 15 minutes at room temperature. Brain organoids were fixed with 4% PFA for 1 hour and submerged in 30% sucrose overnight. The samples were embedded in OCT and sectioned at a thickness of 14 or 20 μm using Leica CM3050S. Cells or brain organoid sections were permeabilized and blocked with blocking solution (1×PBS containing 0.1% Triton X-100 and 5% normal donkey serum) for 1 hour. […]
# as §4
molecule,measurement,setting,value
"N#Cc1cc2nc([O-])c([O-])nc2cc1[N+](=O)[O-].[Na+].[Na+] [CNQX, CNQX disodium salt]","spontaneous, synchronized burst and spikes of the neuronal network (MEA)",[1],could be quenched
"EGFR-specific siRNA: siRNA specific for EGFR, sense SEQ ID NO: 1, antisense SEQ ID NO: 2 (sense GACGGCGUCCGCAAGUGUA; antisense UACACUUGCGGACGCCGUCUU; listed as RNA, chemistry not given here)",GFP fluorescence of siRNA-treated infected brain organoids,[2],no or very low GFP fluorescence
same,growth kinetics of siRNA-treated infected brain organoids,[2],substantially higher growth kinetics
same,susceptibility of brain organoids to TB40/E,[2],completely abrogated
"ITGA3-specific siRNA: siRNA specific for integrin α3, sense SEQ ID NO: 5, antisense SEQ ID NO: 6 (sense GCUACAUGAUUCAGCGCAA; antisense UUGCGCUGAAUCAUGUAGCUG; listed as RNA, chemistry not given here)",GFP fluorescence of siRNA-treated infected brain organoids,[2],similar
same,growth kinetics of siRNA-treated infected brain organoids,[2],similar
"ITGA5-specific siRNA: siRNA specific for integrin α5 (Dharmacon), sense SEQ ID NO: 7, antisense SEQ ID NO: 8 (sense GGGAACCUCACUUACGGCU; antisense AGCCGUAAGUGAGGUUCCCUU; listed as RNA, chemistry not given here) [reference compound]",GFP fluorescence of siRNA-treated infected brain organoids,[2],similar
same,growth kinetics of siRNA-treated infected brain organoids,[2],similar
"PDGFRα-specific siRNA: siRNA specific for PDGFRα, sense SEQ ID NO: 3, antisense SEQ ID NO: 4 (sense CCACCUUCAUCAAGAGAGA; antisense UCUCUCUUGAUGAAGGUGGAA; listed as RNA, chemistry not given here)",GFP fluorescence of siRNA-treated infected brain organoids,[2],no or very low GFP fluorescence
same,growth kinetics of siRNA-treated infected brain organoids,[2],substantially higher growth kinetics
same,susceptibility of brain organoids to TB40/E,[2],completely abrogated
B1,prevention of HCMV infection of fibroblasts,[3],unable to prevent
same,inhibition of HCMV infection of epithelial cells,[4],exceptionally high potency
same,GFP fluorescence intensity of infected brain organoids,[5],substantially reduced GFP fluorescence intensity
same,brain organoid growth kinetics (relative organoid size),[5],markedly increased growth kinetics in a dose-dependent manner
same,brain organoid size,[5],substantially larger
same,prevention of HCMV infection of human brain organoids,[5],can potently prevent
same,infection of brain organoids by TR and its effect on brain organoid growth,[6],could be prevented
same,neural network activity (MEA profile),[7],largely prevented neural network impairment
same,thickness of the TBR2+SVZ and the CTIP2+CP layers,[8],much thicker
B2,prevention of HCMV infection of fibroblasts,[3],can potently interfere
same,inhibition of HCMV infection of epithelial cells,[4],can potently interfere
same,GFP fluorescence intensity of infected brain organoids,[5],substantially reduced GFP fluorescence intensity
same,brain organoid growth kinetics (relative organoid size),[5],markedly increased growth kinetics in a dose-dependent manner
same,brain organoid size,[5],substantially larger
same,prevention of HCMV infection of human brain organoids,[5],can potently prevent

# Reference: patent publication US12502562B2, “Human iPSC-derived brain organoids and uses thereof” (CITY OF HOPE, priority 2020, dated 2025)
